The results in this text go back to doi:10.1101/2023.08.23.554525.

In this test the target is H1 hemagglutinin (A/New Caledonia/20/1999(H1N1)), recombinant HA trimer used for electron microscopy (influenza A virus A/New Caledonia/20/1999 (H1N1)) (UniProt Q6WG00). The test can be described thus: cryo-EM structure.

What is called stoichiometry N is the number of molecules, sites or subunits per partner or assembly. With “H1 hemagglutinin (A/New Caledonia/20/1999(H1N1)), recombinant HA trimer used for electron microscopy (from UniProt Q6WG00 1-565) (natural protein)”, the stoichiometry N is 3.
